The values that follow come from the supplement of paper PMC12764529.

Data set [1] can be described thus: folding stability dG unfold from chymotrypsin proteolysis; higher = more stable. Summed up:
(§1)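 Mini-proteins designed to be under 80 residues and free of cysteine were carried in a PA-tagged cDNA display construct and digested with trypsin and with chymotrypsin. Each protease was applied at 11 threefold-diluted concentrations, alongside a no-protease condition, before sequencing. K50 came from Bayesian fitting of the sequencing counts, and unfolding free energy was obtained by comparing it with a sequence-predicted unfolded-state K50 and a shared folded-state K50, for each protease separately or for both together. Designs were retained only if their AlphaFold2 dimer inter-PAE exceeded 15.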

The nature of data set [2]: folding stability dG unfold (combined trypsin and chymotrypsin); higher = more stable. Summed up: as §1
The nature of data set [3]: folding stability dG unfold from trypsin proteolysis; higher = more stable. In a few lines:
as §1

± gives the half width of the 95% confidence interval.

Consider “SAGGSMKIVEIKIKRNKNGKLTIEIKVELSEEELEDKEKRKKLIEELAKKLAEELEKKFGIKVEVPSAGGSA [r2_306_TrROS_Hall]”, for which the “folding stability dG unfold” value in data set [1] was 3.28 ± 0.091 kcal/mol; in data set [2], 3.28 ± 0.14 kcal/mol; in data set [3], 3.16 ± 0.089 kcal/mol.

For the sequence “SAGGSMKVKIEVEKTPKGYKVRITVEKDGKTYEFEFPEDMSLEEVLEKLKKELEKEGVEIEKIEIVSAGGSA [r2_497_TrROS_Hall]”, the entries for the “folding stability dG unfold” value in data set [1], in data set [2] and in data set [3] were 4.58 ± 0.15 kcal/mol, 4.43 ± 0.26 kcal/mol and 3.15 ± 0.13 kcal/mol, respectively.

In the case of “SAGGSMLEVYYRIPPDIPLEEALERVAREVEEVLRARYGGPVTVEAEEVERPPDDETLLRVLVRFESAGGSA [r2_214_TrMRF]”, the “folding stability dG unfold” value was determined as 2.558 ± 0.024 kcal/mol in data set [1], 2.37 ± 0.11 kcal/mol in data set [2] and 1.7 ± 0.03 kcal/mol in data set [3].

On to “SAGGSMLTPDQVIELPDPNVTATITESEVLEEDPEHGTLLVKYLVVISKNGNPVEEERLLRVPKPVSAGGSA [r2_272_JUSTAS]”, for which the “folding stability dG unfold” value was -0.476 ± 0.22 kcal/mol in data set [1], -0.01 ± 0.079 kcal/mol in data set [2] and 0.205 ± 0.042 kcal/mol in data set [3].

Turning to “SAGGSMNPSVSVEEEVFPDGVTRLKLTFSDGKELEAEVTRHADGNVQVTLYDKSPGKKTTYTIPLSSAGGSA [r2_99_JUSTAS]”, the “folding stability dG unfold” value was found to be 1.57 ± 0.22 kcal/mol in data set [1], 1.21 ± 0.21 kcal/mol in data set [2] and 0.65 ± 0.12 kcal/mol in data set [3].

Consider “SAGGSMNPYSETITVNLPVPTPSGGSVVRPVTVPISIVYEDEKELEEALKKAKEEAEAAARKALGLESAGGS [r16_339_JUSTAS]”, for which the figures for the “folding stability dG unfold” value in data set [1], in data set [2] and in data set [3] were 0.685 ± 0.069 kcal/mol, 1.05 ± 0.11 kcal/mol and 1.37 ± 0.067 kcal/mol, respectively.

With “SAGGSMPPDTEIAVIRVEVRPPDGSTLPLLFTVPLEKVEEVAKEIAERLREKGYEVKVELAAVFPVSAGGSA [r2_274_TrMRF]”, the “folding stability dG unfold” value in data set [1] is 2.18 ± 0.06 kcal/mol; in data set [2], 2.04 ± 0.11 kcal/mol; in data set [3], 2.06 ± 0.057 kcal/mol.

“SAGGSMPPIVASVVEVRFYRFEEEDRERLEAEVTLKLKDGSTATIRLEFPDLSEEELLKTVEETLLSAGGSA [r2_26_JUSTAS]”: the “folding stability dG unfold” value stood at 2.525 ± 0.022 kcal/mol in data set [1], 2.31 ± 0.043 kcal/mol in data set [2] and 1.78 ± 0.042 kcal/mol in data set [3].

With “SAGGSMPVPYESKNVSPSGVEVSSTTYPYDFQIEKFPGSNPVITRTDPKTGEVTPIGTEEELEKLLKSAGGS [r8_232_JUSTAS]”, the “folding stability dG unfold” value in data set [1] is 0.182 ± 0.21 kcal/mol; in data set [2], 0.0982 ± 0.13 kcal/mol; in data set [3] it was -0.172 ± 0.047 kcal/mol.

On to “SAGGSMSAEELREKIAADPRISLDDVTVTVTRTPDSVTVTVTLKDPNDPVYVEAEERARALFAELASAGGSA [r2_3_JUSTAS]”, for which the figures for the “folding stability dG unfold” value in data set [1], in data set [2] and in data set [3] were -1 ± 0.24 kcal/mol, 0.16 ± 0.049 kcal/mol and 0.704 ± 0.024 kcal/mol, respectively.

As to “SAGGSMTAEELAEELAARHPDATVERSPSGVVTFRLPATGLTVTVSSGAGELRITVEDPTVPRRTLESAGGS [r16_478_JUSTAS]”, the “folding stability dG unfold” value is -0.527 ± 0.5 kcal/mol in data set [1], -0.312 ± 0.3 kcal/mol in data set [2] and 0.0944 ± 0.27 kcal/mol in data set [3].

On to “SAGGSMTAEELEGLPAEEIAELLPSDYTVSFIPETGLLVVEAPTRVVLATYNPAEGTVTLLEVRDASAGGSA [r2_470_TrMRF]”, for which the “folding stability dG unfold” value was 0.819 ± 0.07 kcal/mol in data set [1], 0.91 ± 0.12 kcal/mol in data set [2] and 0.849 ± 0.086 kcal/mol in data set [3].

In the case of “SAGGSMTEEELEKKAKEIAEELEKKYKEENPNVEVKVTFEVIPEKGIIKITATSPKGKKLKEIIIPLLSAGG [r13_247_JUSTAS]”, the “folding stability dG unfold” value in data set [1] stood at 3.54 ± 0.23 kcal/mol; in data set [2], 3.9 ± 0.31 kcal/mol; in data set [3] it was 3.74 ± 0.28 kcal/mol.

On to “SAGGSMTEEERRALAEEIAKEVAEKISEEEGIPVKEILSIEVHPDGSVTITIKFPGTEGERTITIPRSAGGS [r16_622_JUSTAS]”, for which the “folding stability dG unfold” value is 2.38 ± 0.17 kcal/mol in data set [1], 2.27 ± 0.19 kcal/mol in data set [2] and 1.96 ± 0.067 kcal/mol in data set [3].

In the case of “SAGGSMTITITNEDGSTYEITVEEENGKLRITITVDGKTVEIEFDKETGKITIRYNGKTFTLTIKPSAGGSA [r2_194_TrROS_Hall]”, the “folding stability dG unfold” value was determined as 5.33 ± 0.13 kcal/mol in data set [1], 5 ± 0.42 kcal/mol in data set [2] and 3.85 ± 0.19 kcal/mol in data set [3].

In the case of “SAGGSMTITYDPETNTVTILDPNIPPNEPRPVTLTLPDGEKYTLTLRPVPGNGWTGTLTWKSTKDGSAGGSA [r2_89_TrMRF]”, the “folding stability dG unfold” value in data set [1] was 1.54 ± 0.19 kcal/mol; in data set [2], 1.27 ± 0.21 kcal/mol; in data set [3], 0.911 ± 0.05 kcal/mol.

“SAGGSMTMTVEIHYPDGTVETRTVPYAPDDPAAAIAAVKAEVEARGGEVLAVETRDGVVTVKALVPPSAGGS [r16_662_JUSTAS]”: the figures for the “folding stability dG unfold” value in data set [1], in data set [2] and in data set [3] were 3.01 ± 0.086 kcal/mol, 2.72 ± 0.095 kcal/mol and 2.4 ± 0.07 kcal/mol, respectively.

In the case of “SAGGSMTTITLTLEFELDENGEVDPEKIEAEAEKIKEENPEIKELTVEVKRDPNSNKITVTVTAKVPSAGGS [r8_258_JUSTAS]”, the “folding stability dG unfold” value turned out to be 3.29 ± 0.19 kcal/mol in data set [1], 3.06 ± 0.18 kcal/mol in data set [2] and 2.79 ± 0.2 kcal/mol in data set [3].

For the sequence “SAGGSMTVVIVKLRPPDSPEVLYLPFRGRLPNGDWVPISLEELLEALEALPDLEVEEIIVAPPEEISAGGSA [r2_192_TrMRF]”, the figures for the “folding stability dG unfold” value in data set [1], in data set [2] and in data set [3] were 1.74 ± 0.087 kcal/mol, 1.7 ± 0.23 kcal/mol and 1.73 ± 0.16 kcal/mol, respectively.

For the sequence “SAGGSMVIEAEIEFPDMTPEEVEERAEEIAEAAAEFARKKGFPIKKVEADVEVFPGEGVVKVTVTLEGSAGG [r13_212_TrMRF]”, the entries for the “folding stability dG unfold” value in data set [1], in data set [2] and in data set [3] were 0.204 ± 0.2 kcal/mol, 0.611 ± 0.11 kcal/mol and 0.612 ± 0.043 kcal/mol, respectively.

Consider “SAGGSMVIRVETPEEAEEAARELAERLRELFPEVKELEIKVKVEVVDEETGEEKEYEFTIKLKLPPSAGGSA [r2_393_TrROS_Hall]”, for which the “folding stability dG unfold” value worked out at 2.62 ± 0.098 kcal/mol in data set [1], 2.62 ± 0.24 kcal/mol in data set [2] and 2.54 ± 0.12 kcal/mol in data set [3].

As to “SAGGSMVITITFPDGSTVTIPEEELLELLKKYGIEPDESDKEKVAKEAAKIIGEEKGIPIKEVKINSAGGSA [r2_83_JUSTAS]”, the “folding stability dG unfold” value in data set [1] stood at 3.43 ± 0.092 kcal/mol; in data set [2], 3.01 ± 0.066 kcal/mol; in data set [3], 1.54 ± 0.059 kcal/mol.

As to “SAGGSMVKEIEIPVPEDWTPEDAVEAAREYLEANPELENVIVRFTLPDGTPLVVEIKPGGKIVKVTPESAGG [r13_690_JUSTAS]”, the “folding stability dG unfold” value in data set [1] is 3.26 ± 0.07 kcal/mol; in data set [2], 2.83 ± 0.15 kcal/mol; in data set [3], 1.71 ± 0.069 kcal/mol.

For the sequence “SAGGSMVRVTIEDKDGKEHWIMIPPGMDPNDVKQQIKKFLEDNGWKVKDVEVETYPPGWAMIRVRVSAGGSA [r2_148_TrROS]”, the “folding stability dG unfold” value in data set [1] came to 2.33 ± 0.031 kcal/mol; in data set [2], 2.2 ± 0.052 kcal/mol; in data set [3] it was 1.88 ± 0.021 kcal/mol.

For “SAGGSMVSEEEIKEIVEKTAAELPEDAVEPVTVTIELPNPDGTTTVLTITITRSPTSISYTVSSSPAASAGG [r19_220_JUSTAS]”, the “folding stability dG unfold” value in data set [1] was 3.27 ± 0.048 kcal/mol; in data set [2], 3.34 ± 0.039 kcal/mol; in data set [3] it was 3.56 ± 0.11 kcal/mol.

Take “SAGGSMVVTETLVETLTETLTFPDGTPVTVTVPVTVTVEVYLPEPPAPPPLPFSRLAEELGDPALVSAGGSA [r2_340_JUSTAS]”: the “folding stability dG unfold” value was -0.661 ± 0.43 kcal/mol in data set [1], -0.623 ± 0.15 kcal/mol in data set [2] and -0.838 ± 0.26 kcal/mol in data set [3].

Consider “SAGGSNPNMFRLKVEIEPYEYRDPDGQPKARVWKIDIEMEPGMPPNMAKNIASNFQNRGLPVKIEPSAGGSA [r2_456_TrROS]”, for which the “folding stability dG unfold” value was determined as 0.689 ± 0.12 kcal/mol in data set [1], 0.578 ± 0.16 kcal/mol in data set [2] and 0.102 ± 0.18 kcal/mol in data set [3].
